One experiment addresses T1, Sortilin SORTECD_HIS (human, UniProt Q99523 78-755).
T1 construct: also called Sortilin-ECD-His; HIS-tagged Sortilin ECD
T1 sequence: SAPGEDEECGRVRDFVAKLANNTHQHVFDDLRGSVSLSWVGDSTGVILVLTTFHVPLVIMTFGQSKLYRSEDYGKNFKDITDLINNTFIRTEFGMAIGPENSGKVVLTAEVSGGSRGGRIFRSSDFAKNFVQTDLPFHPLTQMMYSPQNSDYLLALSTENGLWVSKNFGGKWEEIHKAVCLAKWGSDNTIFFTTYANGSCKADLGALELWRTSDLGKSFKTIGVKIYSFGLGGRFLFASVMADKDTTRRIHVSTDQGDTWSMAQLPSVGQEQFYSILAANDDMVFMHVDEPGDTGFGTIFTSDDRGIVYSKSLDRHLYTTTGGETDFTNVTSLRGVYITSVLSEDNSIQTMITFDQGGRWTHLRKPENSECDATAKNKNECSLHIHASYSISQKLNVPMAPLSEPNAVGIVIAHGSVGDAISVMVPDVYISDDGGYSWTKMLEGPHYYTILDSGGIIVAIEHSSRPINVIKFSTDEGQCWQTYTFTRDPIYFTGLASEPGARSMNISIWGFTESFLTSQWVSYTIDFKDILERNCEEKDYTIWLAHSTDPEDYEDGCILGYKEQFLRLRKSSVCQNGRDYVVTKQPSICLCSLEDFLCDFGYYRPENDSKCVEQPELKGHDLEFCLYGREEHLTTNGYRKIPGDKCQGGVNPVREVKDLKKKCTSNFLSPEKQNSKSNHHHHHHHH
Kind of experiment: HTRF: displacement of PGRN binding to His-tagged Sortilin ECD. How it is done:
Dose-response evaluation of antibodies was performed with ten concentrations covering 50 pM to 1 μM in a 3-fold dilution curve. The half-maximal inhibitory concentration (IC50) values were calculated by non-linear regression using sigmoidal concentration response (variable slope) in XLfit 4 (IDBS, UK).
Experiments were performed in assay buffer (50 mM Phosphate, pH 7.0, 0.1% BSA) in a total volume of 20 μl in a Greiner 384 well, white, low volume microtiter plate, (784075, Greiner).

The next experiment addresses T2, Sortilin hSORTECDBAP (human, UniProt Q99523 78-755, biotinylated on the BAP tag by co-expression of biotin ligase).
T2 construct: Soluble extracellular region (ECD, aa 1-755) with BAP tag
T2 sequence: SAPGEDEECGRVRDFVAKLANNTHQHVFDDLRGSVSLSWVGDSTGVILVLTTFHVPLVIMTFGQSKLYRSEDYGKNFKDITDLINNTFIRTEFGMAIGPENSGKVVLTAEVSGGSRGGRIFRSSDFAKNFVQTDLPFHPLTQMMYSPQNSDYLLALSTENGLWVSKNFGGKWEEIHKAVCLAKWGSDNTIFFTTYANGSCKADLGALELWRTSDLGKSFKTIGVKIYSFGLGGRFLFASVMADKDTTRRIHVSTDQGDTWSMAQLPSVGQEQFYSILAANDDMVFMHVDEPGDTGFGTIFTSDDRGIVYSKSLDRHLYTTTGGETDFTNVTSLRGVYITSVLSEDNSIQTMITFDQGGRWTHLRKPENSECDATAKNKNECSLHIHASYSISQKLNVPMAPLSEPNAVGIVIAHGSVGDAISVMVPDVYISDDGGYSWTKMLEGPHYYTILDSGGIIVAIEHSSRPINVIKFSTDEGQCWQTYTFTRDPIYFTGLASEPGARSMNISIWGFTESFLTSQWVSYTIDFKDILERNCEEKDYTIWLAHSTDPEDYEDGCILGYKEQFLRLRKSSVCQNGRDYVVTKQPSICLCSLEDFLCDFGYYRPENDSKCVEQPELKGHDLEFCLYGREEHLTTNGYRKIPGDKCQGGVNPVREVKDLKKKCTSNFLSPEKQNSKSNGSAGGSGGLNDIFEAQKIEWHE
Nature of the experiment: BLI Octet 384RED, antibody on Protein A sensor, Sortilin construct in solution. How it is done:
(§1) Binding kinetics of anti-Sortilin HuMab antibodies to Sortilin were determined using Octet 384RED (Fortebio, Menlo Park, USA). HuMab solutions of 2 μg/ml were made by dilution in sample diluent (ForteBio, art. No. 18-5028). Prot A sensors (ForteBio, art. no. 18-0004) were prewetted with kinetics buffer (1:10 sample diluent in PBS) for at least 600 seconds. Subsequently sensors were immobilized with HuMab solution for 600 seconds. A baseline response was obtained by dipping in kinetics buffer for 120 seconds. Association of SORTECD constructs was performed during a 1000 seconds incubation. This was followed by dissociation in kinetics buffer for 100 seconds. After dissociation, sensors were regenerated (10 mM Glycine pH 1.0) and neutralized (kinetics buffer) 3 times for 5 seconds. […] A molecular weight of 76.8 kDA was used for SORTECDHis. Data was fitted with ForteBio Analysis 6.4 software, using a global full fit.
For orientation: BLI is a label-free optical method that tracks binding on a fibre tip over time.

For experiment [1], the target named is T3, Sortilin SORTECDBAP_hB06-10 (human/tetraodon chimera).
T3 construct: Shuffle construct
T3 chain: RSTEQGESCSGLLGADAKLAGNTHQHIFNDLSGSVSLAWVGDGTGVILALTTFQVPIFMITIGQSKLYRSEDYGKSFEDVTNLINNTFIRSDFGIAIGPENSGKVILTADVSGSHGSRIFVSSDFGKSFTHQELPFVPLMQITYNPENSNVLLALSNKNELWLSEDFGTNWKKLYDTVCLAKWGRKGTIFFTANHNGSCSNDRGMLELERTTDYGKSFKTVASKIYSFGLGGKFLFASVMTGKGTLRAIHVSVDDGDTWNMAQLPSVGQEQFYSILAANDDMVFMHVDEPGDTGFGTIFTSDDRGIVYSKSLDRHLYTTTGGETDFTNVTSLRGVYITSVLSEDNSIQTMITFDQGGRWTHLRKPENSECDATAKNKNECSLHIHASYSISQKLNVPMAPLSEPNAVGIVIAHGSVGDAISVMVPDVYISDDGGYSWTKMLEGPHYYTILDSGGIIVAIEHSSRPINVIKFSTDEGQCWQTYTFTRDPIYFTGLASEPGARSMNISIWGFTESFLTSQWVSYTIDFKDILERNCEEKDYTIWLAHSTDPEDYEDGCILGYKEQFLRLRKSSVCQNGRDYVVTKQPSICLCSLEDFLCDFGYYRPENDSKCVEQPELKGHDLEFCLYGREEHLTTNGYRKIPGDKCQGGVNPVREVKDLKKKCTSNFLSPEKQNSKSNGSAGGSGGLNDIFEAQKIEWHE
Kind of experiment: BLI Octet 384RED (Example 8), Sortilin construct in solution. How it is done: as §1

This note sets out measurements from patent US20230159643A1 (H LUNDBECK A S, published 2023).

One may read the IC50 as the concentration that gives 50% inhibition. A lower IC50 goes with higher potency. One may read the EC50 as the concentration giving half of the maximal effect. Read a low EC50 as a more potent agent.

B1: 1320 (antibody, V domains shown)
VH: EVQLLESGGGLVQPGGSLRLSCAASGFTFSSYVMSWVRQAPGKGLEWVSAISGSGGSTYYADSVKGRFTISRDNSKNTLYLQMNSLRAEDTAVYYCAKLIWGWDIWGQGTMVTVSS
VL: EIVLTQSPATLSLSPGERATLSCRASQSVSSYLAWYQQRPGQAPRLLIYDASNRATGIPARFSGSGSGTDFTLSISSLEPEDFAVYYCQQRTNWSITFGQGTRLEIK
notes: also called IgG1-6003-1320; Antibody 1320
Molecule B1 returned a half-maximal inhibitory concentration (IC50) with Sortilin SORTECD_HIS of 32 nM. This molecule also showed an EC50 with Sortilin hSORTECDBAP of 19.1 ng/mL.

B2: Antibody 1F2 (antibody, V domains shown)
VH: EVQLVESGGDLVKPGGSLKLSCAASGFTFSSYGMSWVRQTPDKRLEWVAIISSGGSYTHYPDSVKGRFTISRDNAKNTLYLQMSSLKSEDTAMYYCARLCGPLCSGYWGQGTSVTVSS
VL: QAVVTQESALTTSPGETVTLTCRSSTGAVTTSNYANWVQEKPDHLFTGLIGGTNNRAPGVPARFSGSLIGDKAALTITGAQTEDEAIYFCALWYSNHFWVFGGGTKLTVLG
notes: Mouse anti-human Sortilin monoclonal antibody from hybridoma (BALB/c), purified on protein G; Assigned to the D Region; also called 1F2F4; Ab 1F2
B2 displayed an EC50 in experiment [1] of 9.6 ng/mL.

B3: Antibody 5E1 (antibody, V domains shown)
VH: EVHLVESGGDLVNPGGSLKLSCEASGFIFSIYGMSWVRQTPDKRLEWVAMISSGGIYTQYPDSVKGRFTISRDNAKNTLYLQMSGLKSEDTGTYHCTRHDDSWFAYWGQGTLVTVSA
VL: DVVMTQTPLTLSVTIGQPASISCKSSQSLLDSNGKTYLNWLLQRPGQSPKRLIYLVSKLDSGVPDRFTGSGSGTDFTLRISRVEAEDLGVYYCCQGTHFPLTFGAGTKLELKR
notes: Mouse anti-human Sortilin monoclonal antibody from hybridoma (BALB/c), purified on protein G; Assigned to the D Region; also called 5E1F6; Ab 5E1
With B3, the EC50 in experiment [1] came out at 0.72 ng/mL.
